# US20230184768A1 (MESO SCALE TECHNOLOGIES, published 2023)
# B1: HCoV-HKU1 S protein (other)
# chain: AVIGDFNCTNFAINDLNTTVPRISEYVVDVSYGLGTYYILDRVYLNTTILFTGYFPKSGANFRDLSLKGTTYLSTLWYQKPFLSDFNNGIFSRVKNTKLYVNKTLYSEFSTIVIGSVFINNSYTIVVQPHNGVLEITACQYTMCEYPHTICKSKGSSRNESWHFDKSEPLCLFKKNFTYNVSTDWLYFHFYQERGTFYAYYADSGMPTTFLFSLYLGTLLSHYYVLPLTCNAISSNTDNETLQYWVTPLSKRQYLLKFDNRGVITNAVDCSSSFFSEIQCKTKSLLPNTGVYDLSGFTVKPVATVHRRIPDLPDCDIDKWLNNFNVPSPLNWERKIFSNCNFNLSTLLRLVHTDSFSCNNFDESKIYGSCFKSIVLDKFAIPNSRRSDLQLGSSGFLQSSNYKIDTTSSSCQLYYSLPAINVTINNYNPSSWNRRYGFNNFNLSSHSVVYSRYCFSVNNTFCPCAKPSFASSCKSHKPPSASCPIGTNYRSCESTTVLDHTDWCRCSCLPDPITAYDPRSCSQKKSLVGVGEHCAGFGVDEEKCGVLDGSYNVSCLCSTDAFLGWSYDTCVSNNRCNIFSNFILNGINSGTTCSNDLLQPNTEVFTDVCVDYDLYGITGQGIFKEVSAVYYNSWQNLLYDSNGNIIGFKDFVTNKTYNIFPCYAGRVSAAFHQNASSLALLYRNLKCSYVLNNISLTTQPYFDSYLGCVFNADNLTDYSVSSCALRMGSGFCVDYNSPSSSSSRRKRRSISASYRFVTFEPFNVSFVNDSIESVGGLYEIKIPTNFTIVGQEEFIQTNSPKVTIDCSLFVCSNYAACHDLLSEYGTFCDNINSILDEVNGLLDTTQLHVADTLMQGVTLSSNLNTNLHFDVDNINFKSLVGCLGPHCGSSSRSFFEDLLFDKVKLSDVGFVEAYNNCTGGSEIRDLLCVQSFNGIKVLPPILSESQISGYTTAATVAAMFPPWSAAAGIPFSLNVQYRINGLGVTMDVLNKNQKLIATAFNNALLSIQNGFSATNSALAKIQSVVNSNAQALNSLLQQLFNKFGAISSSLQEILSRLDALEAQVQIDRLINGRLTALNAYVSQQLSDISLVKFGAALAMEKVNECVKSQSPRINFCGNGNHILSLVQNAPYGLLFMHFSYKPISFKTVLVSPGLCISGDVGIAPKQGYFIKHNDHWMFTGSSYYYPEPISDKNVVFMNTCSVNFTKAPLVYLNHSVPKLSDFESELSHWFKNQTSIAPNLTLNLHTINATFLDLYYEMNLIQES
# notes: also called HCoV-HKU1 spike protein
# Molecular target: T1, labeled ACE2 (angiotensin-converting enzyme 2) (human, UniProt Q9BYF1 18-740)
# T1 construct: also called ACE2 detection reagent
# Experiment: labeled ACE2 on immobilized Mixed Panel, ECL
# T1 sequence (Q9BYF1 18-740 limits assumed): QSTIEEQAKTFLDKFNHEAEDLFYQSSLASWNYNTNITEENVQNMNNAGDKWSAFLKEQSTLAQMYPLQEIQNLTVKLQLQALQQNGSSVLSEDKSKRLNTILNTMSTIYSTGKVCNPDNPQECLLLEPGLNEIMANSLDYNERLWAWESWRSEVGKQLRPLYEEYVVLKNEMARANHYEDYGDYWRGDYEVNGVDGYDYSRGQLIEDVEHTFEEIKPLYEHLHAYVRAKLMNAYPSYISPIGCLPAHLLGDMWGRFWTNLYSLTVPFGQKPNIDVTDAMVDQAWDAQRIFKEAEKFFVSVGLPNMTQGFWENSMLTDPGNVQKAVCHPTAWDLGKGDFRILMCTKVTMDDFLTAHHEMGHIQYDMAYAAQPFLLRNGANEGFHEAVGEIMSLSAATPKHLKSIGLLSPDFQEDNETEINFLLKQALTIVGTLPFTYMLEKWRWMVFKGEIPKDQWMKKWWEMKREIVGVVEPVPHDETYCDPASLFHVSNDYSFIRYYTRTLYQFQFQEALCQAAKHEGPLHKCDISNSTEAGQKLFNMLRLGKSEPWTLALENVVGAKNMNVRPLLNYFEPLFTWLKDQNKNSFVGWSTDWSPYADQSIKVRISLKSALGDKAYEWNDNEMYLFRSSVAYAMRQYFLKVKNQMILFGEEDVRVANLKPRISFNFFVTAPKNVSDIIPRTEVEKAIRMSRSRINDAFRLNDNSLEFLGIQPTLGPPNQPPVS
binder,measurement,value
B1,binding result,no binding
